In the assay the target is T1, full-length glutathione S-transferase (GST)-Mps1 (UniProt P33981 1-857).
T1 sequence: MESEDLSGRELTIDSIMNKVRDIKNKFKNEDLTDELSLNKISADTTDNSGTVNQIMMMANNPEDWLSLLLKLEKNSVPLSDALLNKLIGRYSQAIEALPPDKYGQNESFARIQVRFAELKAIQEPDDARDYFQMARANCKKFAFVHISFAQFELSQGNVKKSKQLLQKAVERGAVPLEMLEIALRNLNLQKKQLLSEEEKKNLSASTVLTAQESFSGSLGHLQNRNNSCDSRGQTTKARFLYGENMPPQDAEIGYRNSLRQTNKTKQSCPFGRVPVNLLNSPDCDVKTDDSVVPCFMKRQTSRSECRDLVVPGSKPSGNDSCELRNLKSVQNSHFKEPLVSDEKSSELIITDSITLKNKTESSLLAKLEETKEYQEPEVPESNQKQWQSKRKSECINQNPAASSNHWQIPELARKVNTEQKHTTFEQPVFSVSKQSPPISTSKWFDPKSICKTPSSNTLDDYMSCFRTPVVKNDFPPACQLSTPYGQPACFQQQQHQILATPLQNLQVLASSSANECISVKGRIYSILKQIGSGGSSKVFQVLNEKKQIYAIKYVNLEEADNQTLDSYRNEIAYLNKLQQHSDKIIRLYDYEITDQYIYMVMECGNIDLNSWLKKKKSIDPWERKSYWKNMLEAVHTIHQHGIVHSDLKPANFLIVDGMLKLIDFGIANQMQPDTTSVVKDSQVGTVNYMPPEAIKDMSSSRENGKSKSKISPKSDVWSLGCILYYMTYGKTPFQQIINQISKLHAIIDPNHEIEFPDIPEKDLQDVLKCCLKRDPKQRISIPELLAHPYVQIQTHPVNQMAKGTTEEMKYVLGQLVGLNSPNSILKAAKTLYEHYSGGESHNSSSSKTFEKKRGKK
Briefly: pull-down.

B1: recombinant His-Cetn2 (natural protein)
chain: MASNFKKANMASSSQRKRMSPKPELTEEQKQEIREAFDLFDADGTGTIDVKELKVAMRALGFEPKKEEIKKMISEIDKEGTGKMNFGDFLTVMTQKMSEKDTKEEILKAFKLFDDDETGKISFKNLKRVAKELGENLTDEELQEMIDEADRDGDGEVSEQEFLRIMKKTSLY
Consider B1, for which the “fold binding to GST-Mps1 on coincubation with Cetn3 against Cetn2 alone” value came to 3.39 ± 1.96 fold.

B2: recombinant His-Cetn3 (natural protein)
chain: MSLALRSELVVDKTKRKKRRELSEEQKQEIKDAFELFDTDKDEAIDYHELKVAMRALGFDVKKADVLKILKDYDREATGKITFEDFNEVVTDWILERDPHEEILKAFKLFDDDDSGKISLRNLRRVARELGENMSDEELRAMIEEFDKDGDGEINQEEFIAIMTGDI
Take B2: the “fold binding to GST-Mps1 with 5 mM MgCl2 against without” value worked out at 2.59 ± 0.91 fold.

For the origin of these results see article PMC4626060 (Molecular Biology of the Cell, 2015).
